Data as given in the Immune Epitope Database (IEDB).

Tests used:
HLA-B*57:01 = test: IEDB peptide-MHC binding, purified MHC/competitive/radioactivity; filed as Kd, often an IC50 or EC50 that approximates it; ≥ and ≤ were set here for values at or beyond the usual limits of such assays; conditions: source organism: Dengue virus 3 Sri Lanka/1266/2000
HLA-B*53:01 = test: as above
HLA-B*35:01 = test: as above
HLA-B*08:01 [1] = test: as above
HLA-A*03:01 [2] = test: IEDB peptide-MHC binding, purified MHC/competitive/fluorescence; filed as Kd, often an IC50 or EC50 that approximates it; ≥ and ≤ were set here for values at or beyond the usual limits of such assays; conditions: source organism: Shigella flexneri 2a str. 301
HLA-B*08:01 [3] = test: IEDB peptide-MHC binding, purified MHC/direct/fluorescence; filed as Kd, often an IC50 or EC50 that approximates it; ≥ and ≤ were set here for values at or beyond the usual limits of such assays
HLA-A*11:01 [4] = test: as above
HLA-A*02:01 [5] = test: as above
HLA-B*07:02 = test: as above
HLA-A*01:01 = test: as above
HLA-A*26:01 = test: as above
HLA-A*03:01 [6] = test: as above
HLA-B*58:01 = test: as above
HLA-B*27:05 = test: as above
HLA-A*69:01 = test: as above
HLA-A*24:03 = test: as above; conditions: source organism: Toxoplasma gondii
HLA-B*44:02 = test: as above
HLA-B*15:01 = test: as above
HLA-B*40:01 = test: as above
HLA-A*02:03 = test: IEDB peptide-MHC binding, purified MHC/competitive/radioactivity; filed as Kd, often an IC50 or EC50 that approximates it; ≥ and ≤ were set here for values at or beyond the usual limits of such assays; conditions: source organism: Dengue virus 1 Brazil/97-11/1997
HLA-A*24:02 = test: IEDB peptide-MHC binding, purified MHC/competitive/fluorescence; ≥ and ≤ were set here for values at or beyond the usual limits of such assays
HLA-B*54:01 = test: IEDB peptide-MHC binding, purified MHC/competitive/radioactivity; filed as Kd, often an IC50 or EC50 that approximates it; ≥ and ≤ were set here for values at or beyond the usual limits of such assays; conditions: source organism: Mammarenavirus lassaense
HLA-B*18:01 = test: IEDB peptide-MHC binding, purified MHC/direct/fluorescence; filed as Kd, often an IC50 or EC50 that approximates it; ≥ and ≤ were set here for values at or beyond the usual limits of such assays; conditions: source organism: dengue virus type 1
HLA-A*11:01 [7] = test: IEDB peptide-MHC binding, purified MHC/competitive/fluorescence; ≥ and ≤ were set here for values at or beyond the usual limits of such assays
HLA-A*02:01 [8] = test: as above; conditions: source organism: Zaire ebolavirus
HLA-A*31:01 = test: IEDB peptide-MHC binding, purified MHC/direct/fluorescence; filed as Kd, often an IC50 or EC50 that approximates it; ≥ and ≤ were set here for values at or beyond the usual limits of such assays
[9] = source organism: Dengue virus 3 Martinique/1243/1999
[10] = source organism: Vaccinia virus WR
[11] = source organism: Toxoplasma gondii
[12] = source organism: Dengue virus 1 Brazil/97-11/1997
[13] = source organism: Vaccinia virus
[14] = source organism: Zaire ebolavirus
[15] = source organism: Campylobacter jejuni RM1221
[16] = source organism: Shigella flexneri

KTSLCLMMIL
Kd (HLA-B*57:01): 0.00968 µM

EPWLKNNQF
Kd (HLA-B*53:01; [9]): 2.58 µM | Kd (HLA-B*35:01; [9]): 1.03 µM

VMAVGLVSIL
Kd (HLA-B*08:01 [1]; [9]): 0.154 µM

SILSSFFSL
Kd (HLA-B*08:01 [1]; [10]): 0.229 µM

VVLDLFARK
Kd (HLA-A*03:01 [2]): 0.175 µM

AYMDRKSFK
Kd (HLA-B*08:01 [3]; [11]): ≥ 20 µM | Kd (HLA-A*11:01 [4]; [11]): ≥ 5 µM | Kd (HLA-A*02:01 [5]; [11]): ≥ 20 µM | Kd (HLA-B*07:02; [11]): ≥ 20 µM | Kd (HLA-A*01:01; [11]): ≥ 20 µM | Kd (HLA-A*26:01; [11]): ≥ 20 µM | Kd (HLA-A*03:01 [6]; [11]): 14.7 µM | Kd (HLA-B*58:01; [11]): ≥ 20 µM | Kd (HLA-B*27:05; [11]): ≥ 20 µM | Kd (HLA-A*69:01; [11]): ≥ 20 µM | Kd (HLA-A*24:03): 2.43 µM | Kd (HLA-B*44:02; [11]): ≥ 20 µM | Kd (HLA-B*15:01; [11]): ≥ 20 µM | Kd (HLA-B*40:01; [11]): ≥ 20 µM

GLNSRSTSL
Kd (HLA-B*08:01 [1]; [12]): 0.0147 µM | Kd (HLA-A*02:03): 0.0164 µM

KDVSYNDYF
IC50 (HLA-A*24:02; [13]): 41.4 µM

DAVLYYHMM
IC50 (HLA-A*24:02; [14]): 3.14 µM

VLRTKITSL
Kd (HLA-B*08:01 [1]; [10]): 0.00092 µM

MCISLSTAI
Kd (HLA-B*54:01): 0.601 µM

ICGLRQLAN
IC50 (HLA-A*24:02; [14]): 16.2 µM

SEHTGREIV
Kd (HLA-B*18:01): 2.04 µM | Kd (HLA-B*44:02; source organism: dengue virus type 1): ≥ 20 µM

LNLSKFMMV
Kd (HLA-B*08:01 [1]; [10]): 0.102 µM

RWGGTCRIL
IC50 (HLA-A*24:02; source organism: Sudan ebolavirus): 0.23 µM

SETAGNNNT
IC50 (HLA-A*11:01 [7]; [14]): ≥ 363 µM | IC50 (HLA-A*02:01 [8]): ≥ 98.4 µM

IYDYLRLLY
Kd (HLA-B*08:01 [3]; source organism: Clostridium botulinum NCTC 2916): ≥ 20 µM | Kd (HLA-A*31:01; [15]): ≥ 20 µM | Kd (HLA-A*02:01 [5]; [15]): ≥ 20 µM | Kd (HLA-B*07:02; [15]): ≥ 20 µM | Kd (HLA-A*01:01; [15]): 5.13 µM | Kd (HLA-A*03:01 [6]; [15]): ≥ 20 µM | Kd (HLA-B*58:01; [15]): ≥ 20 µM | Kd (HLA-B*27:05; [15]): ≥ 20 µM | Kd (HLA-A*69:01; [15]): ≥ 20 µM | Kd (HLA-B*44:02; [15]): ≥ 20 µM | Kd (HLA-B*15:01; [15]): ≥ 20 µM | Kd (HLA-B*40:01; [15]): ≥ 20 µM

MPSVVETLEQ
Kd (HLA-B*53:01; [12]): 1.2 µM | Kd (HLA-B*35:01; [12]): 6.11 µM

MKMKKKTWL
Kd (HLA-B*08:01 [1]; source organism: Dengue virus 4 Philippines/H241/1956): 0.0629 µM

VVISKKDTY
Kd (HLA-B*08:01 [3]; [16]): ≥ 20 µM | Kd (HLA-A*11:01 [4]; [16]): 2.96 µM | Kd (HLA-A*31:01; [16]): 5.5 µM | Kd (HLA-A*02:01 [5]; [16]): ≥ 20 µM | Kd (HLA-B*07:02; [16]): ≥ 20 µM | Kd (HLA-A*01:01; [16]): ≥ 20 µM | Kd (HLA-A*26:01; [16]): 6.93 µM | Kd (HLA-A*03:01 [6]; [16]): ≥ 20 µM | Kd (HLA-B*58:01; [16]): ≥ 20 µM | Kd (HLA-B*27:05; [16]): ≥ 20 µM | Kd (HLA-A*69:01; [16]): ≥ 20 µM | Kd (HLA-B*44:02; [16]): ≥ 20 µM | Kd (HLA-B*15:01; [16]): ≥ 20 µM | Kd (HLA-B*40:01; [16]): ≥ 20 µM

KMRPMFAVGL
Kd (HLA-B*08:01 [1]; [12]): 4.58 µM

HRRLRNKRL
Kd (HLA-B*08:01 [1]; [10]): 0.0284 µM

NNIGIEYSK
IC50 (HLA-A*11:01 [7]; [13]): ≥ 173 µM

NFMQRIISL
Kd (HLA-B*08:01 [1]; [10]): 1.49 µM
